Assay results taken from US11098105 (Zymeworks, dated 2021).
Substitutions are numbered along the chain they refer to.

T1: FcγRIIb (UniProt P31994 46-217)
T1 construct: also called 2b; CD32b
T1 sequence (looked up): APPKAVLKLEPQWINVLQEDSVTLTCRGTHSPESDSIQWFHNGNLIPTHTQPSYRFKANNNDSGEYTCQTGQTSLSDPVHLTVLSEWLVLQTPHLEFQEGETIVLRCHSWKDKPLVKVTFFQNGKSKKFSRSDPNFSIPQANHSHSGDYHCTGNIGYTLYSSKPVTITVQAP

T2: FcγRIIaH (UniProt P12318 36-218)
T2 construct: also called 2aH; 2ah
T2 sequence (looked up): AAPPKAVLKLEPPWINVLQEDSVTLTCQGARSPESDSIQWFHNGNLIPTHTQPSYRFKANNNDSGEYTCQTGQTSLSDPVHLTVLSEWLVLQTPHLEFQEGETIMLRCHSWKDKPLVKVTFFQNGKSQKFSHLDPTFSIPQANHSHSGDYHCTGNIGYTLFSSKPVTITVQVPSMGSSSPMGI

T3: FcγRIIaR (UniProt P12318 36-218)
T3 construct: also called 2aR; 2ar
T3 sequence (looked up): T2 sequence (looked up) with H132R

B1: Control WT Rituximab 1261 (antibody, human IgG1, kappa)
heavy 1: QVQLQQPGAELVKPGASVKMSCKASGYTFTSYNMHWVKQTPGRGLEWIGAIYPGNGDTSYNQKFKGKATLTADKSSSTAYMQLSSLTSEDSAVYYCARSTYYGGDWYFNVWGAGTTVTVSAASTKGPSVFPLAPSSKSTSGGTAALGCLVKDYFPEPVTVSWNSGALTSGVHTFPAVLQSSGLYSLSSVVTVPSSSLGTQTYICNVNHKPSNTKVDKKVEPKSCDKTHTCPPCPAPELLGGPSVFLFPPKPKDTLMISRTPEVTCVVVDVSHEDPEVKFNWYVDGVEVHNAKTKPREEQYNSTYRVVSVLTVLHQDWLNGKEYKCKVSNKALPAPIEKTISKAKGQPREPQVYVYPPSRDELTKNQVSLTCLVKGFYPSDIAVEWESNGQPENNYKTTPPVLDSDGSFALVSKLTVDKSRWQQGNVFSCSVMHEALHNHYTQKSLSLSPGK
heavy 2: not shown
light: QIVLSQSPAILSASPGEKVTMTCRASSSVSYIHWFQQKPGSSPKPWIYATSNLASGVPVRFSGSGSGTSYSLTISRVEAEDAATYYCQQWTSNPPTFGGGTKLEIKRTVAAPSVFIFPPSDEQLKSGTASVVCLLNNFYPREAKVQWKVDNALQSGNSQESVTEQDSKDSTYSLSSTLTLSKADYEKHKVYACEVTHQGLSSPVTKSFNRGEC
notes: also called v1261; V1261
B2: AAC9, rituximab-based asymmetric antibody construct (antibody, human IgG1, kappa)
heavy 1: B1 heavy 1 with L238D, L239E
heavy 2: B1 heavy 1 with E237K, L238R, L239R, Y355L, T370L, K396L, T398W, A409F, V411Y
light: B1 light
B3: AAC10, rituximab-based asymmetric antibody construct (antibody, human IgG1, kappa)
heavy 1: B1 heavy 1 with L238D, L239E, D269S
heavy 2: B1 heavy 1 with E237K, L238R, L239R, D269S, Y355L, T370L, K396L, T398W, A409F, V411Y
light: B1 light
B4: AAC11, rituximab-based asymmetric antibody construct (antibody, human IgG1, kappa)
heavy 1: B1 heavy 1 with L238D, L239E, E273K
heavy 2: B1 heavy 1 with E237K, L238R, L239R, E273K, Y355L, T370L, K396L, T398W, A409F, V411Y
light: B1 light
B5: AAC12, rituximab-based asymmetric antibody construct (antibody, human IgG1, kappa)
heavy 1: B1 heavy 1 with L238D, L239E, K326A
heavy 2: B1 heavy 1 with E237K, L238R, L239R, K326A, Y355L, T370L, K396L, T398W, A409F, V411Y
light: B1 light
B6: AAC14, rituximab-based asymmetric antibody construct (antibody, human IgG1, kappa)
heavy 1: B1 heavy 1 with L238D, L239E, D269S, E273K, K326A
heavy 2: QVQLQQPGAELVKPGASVKMSCKASGYTFTSYNMHWVKQTPGRGLEWIGAIYPGNGDTSYNQKFKGKATLTADKSSSTAYMQLSSLTSEDSAVYYCARSTYYGGDWYFNVWGAGTTVTVSAASTKGPSVFPLAPSSKSTSGGTAALGCLVKDYFPEPVTVSWNSGALTSGVHTFPAVLQSSGLYSLSSVVTVPSSSLGTQTYICNVNHKPSNTKVDKKVEPKSCDKTHTCPPCPAPKRRGGPSVFLFPPKPKDTLMISRTPEVTCVVVSVSHKDPEVKFNWYVDGVEVHNAKTKPREEQYNSTYRVVSVLTVLHQDWLNGKEYKCAVSNKALPAPIEKTISKAKGQPREPQVYVLPPSRDELTKNQVSLLCLVKGFYPSDIAVEWESNGQPENNYLTWPPVLDSDGSFFLYSKLTVDKSRWQQGNVFSCSVMHEALHNHYTQKSLSLSPGK
light: B1 light
B7: AAC15, rituximab-based asymmetric antibody construct (antibody, human IgG1, kappa)
heavy 1: B1 heavy 1 with L238D, L239E, D269S, E273K, K326E, E337K
heavy 2: B6 heavy 2 with A326E, E337K
light: B1 light
B8: AAC13, rituximab-based asymmetric antibody construct (antibody, human IgG1, kappa)
heavy 1: B1 heavy 1 with L238D, L239E, P333W
heavy 2: B6 heavy 2 with S269D, K273E, A326K, P333W
light: B1 light

target: Human C1q (human, UniProt P02745 23-245; P02746 28-253; P02747 29-245); assay: cell-based or functional assay
Sequence (P02745 23-245 limits assumed, chain 1 of 3): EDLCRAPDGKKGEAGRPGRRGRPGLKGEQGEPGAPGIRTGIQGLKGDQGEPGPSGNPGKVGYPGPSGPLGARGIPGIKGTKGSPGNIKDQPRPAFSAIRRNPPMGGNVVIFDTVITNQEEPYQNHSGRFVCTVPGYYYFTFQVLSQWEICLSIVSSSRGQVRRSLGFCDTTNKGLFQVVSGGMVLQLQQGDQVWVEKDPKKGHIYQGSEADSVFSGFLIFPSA
Sequence (P02746 28-253 limits assumed, chain 2 of 3): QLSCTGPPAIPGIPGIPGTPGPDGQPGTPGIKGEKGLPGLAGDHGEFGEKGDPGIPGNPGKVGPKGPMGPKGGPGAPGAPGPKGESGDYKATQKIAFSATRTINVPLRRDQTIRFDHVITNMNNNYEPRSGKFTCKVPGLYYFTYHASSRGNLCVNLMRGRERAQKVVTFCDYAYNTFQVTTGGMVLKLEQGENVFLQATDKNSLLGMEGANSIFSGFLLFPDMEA
Sequence (P02747 29-245 limits assumed, chain 3 of 3): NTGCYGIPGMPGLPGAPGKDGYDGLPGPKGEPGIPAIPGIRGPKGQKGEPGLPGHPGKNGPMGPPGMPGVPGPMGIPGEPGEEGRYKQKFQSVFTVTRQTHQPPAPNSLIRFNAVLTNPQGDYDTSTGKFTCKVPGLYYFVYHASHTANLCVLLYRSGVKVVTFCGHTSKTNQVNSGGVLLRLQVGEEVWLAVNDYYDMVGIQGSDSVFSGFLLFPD

Binder	CDC EC50 [nM], Daudi cells, 10% normal human serum [nM]	CDC Maximum Lysis, Daudi cells, 10% normal human serum [% cell lysis]
B1	2.9	96
B2	47.9	68
B3	82.8	79
B4	51.6	63
B5	54.6	67
B6	69.7	72
B7	~55.9	43

target: CD16a(158V/V) on NK92 effector cells (UniProt P08637 17-254, limits assumed); assay: cell-based or functional assay

Binder	ADCC EC50 [nM], Daudi cells, NK92/CD16a(158V/V) effector cells [nM]	ADCC Maximum Lysis, Daudi cells, NK92/CD16a(158V/V) effector cells [% cell lysis]
B1	0.1	66
B3	7.4	45
B4	> 100	
B5	23.1	20

target: T4, FcγRIIIaF (UniProt P08637 17-208); assay: SPR, antibody captured by goat anti-IgG, FcγR injected
T4 construct: also called 3aF; 3af

Binder	binding result
B2	no binding
B3	no binding
B4	no binding
B5	no binding
B8	no binding
B6	no binding
B7	no binding

target: T1, FcγRIIb; assay: as above

Binder	binding result
B2	no binding
B3	no binding
B4	no binding
B5	no binding
B8	no binding
B6	no binding
B7	no binding

target: T2, FcγRIIaH; assay: as above

Binder	binding result
B2	no binding
B3	no binding
B4	no binding
B5	no binding
B8	no binding
B6	no binding
B7	no binding

target: T3, FcγRIIaR; assay: as above

Binder	binding result
B2	no binding
B3	no binding
B4	no binding
B5	no binding
B8	no binding
B6	no binding
B7	no binding

target: T4, FcγRIIIaF; assay: SPR, antibody captured by goat anti-IgG, FcγR injected, equilibrium fit
Description: (§1) Affinity of FcgR to antibody Fc was measured by SPR using a ProteOn XPR36 at 25° C. with PBS containing 3.4 mM EDTA, and 0.05% Tween 20 at pH 7.4 as the running buffer. […] 40 μg/mL of purified rituximab-based antibodies were indirectly captured by injecting at 25 μL/min for 240s (resulting in approx. 500RUs capture) in the ligand direction, following a buffer injection to establish a stable baseline in the analyte direction. FcγRs were subsequently injected at 50 μL/min for 120s with a 180s dissociation phase to obtain a set of binding sensorgrams. Resultant Kd (affinity) values were determined from double-referenced sensorgrams using the Equilibrium Fit model in the Proteon Manager software. Reported values as the mean of two or three independent runs.

Binder	SPR Ka ratio with respect to wild-type trastuzumab
B1	1.36

target: T5, FcγRIIIaV (UniProt P08637 17-208); assay: as above
T5 construct: also called 3aV; 3av
Description: as §1

Binder	SPR Ka ratio with respect to wild-type trastuzumab
B1	1.34
B2	0.08
B5	0.08

target: T1, FcγRIIb; assay: as above
Description: as §1

Binder	SPR Ka ratio with respect to wild-type trastuzumab
B1	1.85

target: T2, FcγRIIaH; assay: as above
Description: as §1

Binder	SPR Ka ratio with respect to wild-type trastuzumab
B1	1.87

target: T3, FcγRIIaR; assay: as above
Description: as §1

Binder	SPR Ka ratio with respect to wild-type trastuzumab
B1	1.47
